Assays:
Assay in all cases: cell-based or functional assay
[1] = target: HIV-1 92BR020 Env (pseudovirus, clade B) (HIV-1)
[2] = target: HIV-1 Env of isolate 92UG024 (clade D), on pseudovirus (HIV-1)
[3] = target: HIV-1 Env of isolate 92UG046 (HIV-1)
[4] = target: HIV-1 Env of isolate 92WR026 (HIV-1)
[5] = target: HIV-1 Env of isolate 93TH305 (HIV-1)
[6] = target: HIV-1 Env of isolate 98IN022 (subtype C) (HIV-1)
[7] = target: HIV-1 Env of isolate CAAN.A2 (subtype B) (HIV-1)
[8] = target: HIV-1 Env of isolate MG RM-D-001 (HIV-1)
[9] = target: HIV-1 Env of isolate MG RM-D-021 (HIV-1)
[10] = target: HIV-1 Env of isolate MGRM-A-007 (subtype A) (HIV-1)
[11] = target: HIV-1 Env of isolate MGRM-A-009 (subtype A) (HIV-1)
[12] = target: HIV-1 Env of isolate MGRM-A-010 (subtype A) (HIV-1)
[13] = target: HIV-1 Env of isolate MGRM-A-011 (subtype A) (HIV-1)
[14] = target: HIV-1 Env of isolate MGRM-AG-009 (subtype AG) (HIV-1)
[15] = target: HIV-1 Env of isolate MGRM-AG-011 (subtype AG) (HIV-1)
[16] = target: HIV-1 Env of isolate MGRM-AG-012 (subtype AG) (HIV-1)
[17] = target: HIV-1 Env of isolate MGRM-Chronic-B-002 (subtype B) (HIV-1)
[18] = target: HIV-1 Env of isolate MGRM-Chronic-B-011 (subtype B) (HIV-1)
[19] = target: HIV-1 Env of isolate VLGCB3 (subtype B) (HIV-1)
[20] = target: HIV-1 envelope glycoprotein (Env) of isolate MGRM-C-007 (HIV-1)
[21] = target: HIV-1 envelope glycoprotein (Env) of isolate MGRM-C-014 (HIV-1)
[22] = target: HIV-1 envelope glycoprotein (Env) of isolate MGRM-C-028 (HIV-1)

5329_C19 (PGT-136) (antibody), sequence (VH): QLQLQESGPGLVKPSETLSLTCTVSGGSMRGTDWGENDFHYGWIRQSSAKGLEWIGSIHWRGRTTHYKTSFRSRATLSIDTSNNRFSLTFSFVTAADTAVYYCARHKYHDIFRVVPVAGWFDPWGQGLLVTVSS
5329_C19 (PGT-136) (antibody), sequence (VL): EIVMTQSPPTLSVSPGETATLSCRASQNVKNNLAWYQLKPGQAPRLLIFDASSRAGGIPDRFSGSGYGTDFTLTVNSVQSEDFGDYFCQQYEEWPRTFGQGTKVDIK

Row | Substance | IC50 neutralization [1] | IC50, pseudovirus neutralization [2] | IC50 (µg/mL), pseudovirus neutralization [3] | IC50 [4] | neutralization IC50 [5] | IC50 neutralization [6] | IC50 neutralization [7] | IC50 (µg/mL), pseudovirus neutralization [8] | IC50 (µg/mL), pseudovirus neutralization [9] | IC50 (µg/mL), pseudovirus neutralization [10] | IC50 (µg/mL), pseudovirus neutralization [11] | IC50 (µg/mL), pseudovirus neutralization [12] | IC50 (µg/mL), pseudovirus neutralization [13] | IC50 (µg/mL), pseudovirus neutralization [14] | IC50 (µg/mL), pseudovirus neutralization [15] | IC50 (µg/mL), pseudovirus neutralization [16] | IC50 neutralization [17] | IC50 neutralization [18] | IC50 neutralization [19] | IC50 (µg/mL), pseudovirus neutralization [20] | other results
1 | 5343_B08 (PGT-135) (antibody) | 0.104 µg/mL | 0.0139 µg/mL | > 50 µg/mL | 0.068 µg/mL | > 50 µg/mL | 0.014 µg/mL | 5.15 µg/mL | > 50 µg/mL | > 50 µg/mL | > 50 µg/mL | > 50 µg/mL | > 50 µg/mL | > 50 µg/mL | > 50 µg/mL | > 50 µg/mL | 41.9 µg/mL | > 50 µg/mL | > 50 µg/mL | 0.142 µg/mL | > 50 µg/mL | IC50 (µg/mL), pseudovirus neutralization [21]: > 50 µg/mL; IC50 (µg/mL), pseudovirus neutralization [22]: 1.47 µg/mL
2 | 5329_C19 (PGT-136) (antibody) | > 10 µg/mL | 0.0915 µg/mL | > 50 µg/mL | > 50 µg/mL | 20.2 µg/mL | 13.6 µg/mL | > 50 µg/mL | > 50 µg/mL | > 50 µg/mL | > 50 µg/mL | > 50 µg/mL | > 50 µg/mL | > 50 µg/mL | > 50 µg/mL | > 50 µg/mL | > 50 µg/mL | > 50 µg/mL | > 50 µg/mL | > 50 µg/mL | > 50 µg/mL | IC50 (µg/mL), pseudovirus neutralization [21]: > 50 µg/mL; IC50 (µg/mL), pseudovirus neutralization [22]: 33.7 µg/mL
3 | 5147_N06 (PGT-130) (antibody) | 1.12 µg/mL | > 10 µg/mL | > 50 µg/mL | 0.037 µg/mL | 0.021 µg/mL | > 50 µg/mL | > 50 µg/mL | > 50 µg/mL | 0.156 µg/mL | > 50 µg/mL | 0.308 µg/mL | 0.005 µg/mL | > 50 µg/mL | 9.46 µg/mL | > 50 µg/mL | > 50 µg/mL | > 50 µg/mL | 0.153 µg/mL | 4.6 µg/mL | > 50 µg/mL | IC50 (µg/mL), pseudovirus neutralization [21]: > 50 µg/mL; IC50 (µg/mL), pseudovirus neutralization [22]: > 50 µg/mL

From US20250320281A1
